Data from IntAct's records for PubMed 18394558.

B1: Cyclin-dependent kinase 4 inhibitor C (Homo sapiens), P42773 (parent)
chain: MAEPWGNELASAAARGDLEQLTSLLQNNVNVNAQNGFGRTALQVMKLGNPEIARRLLLRGANPDLKDRTGFAVIHDAARAGFLDTLQTLLEFQADVNIEDNEGNLPLHLAAKEGHLRVVEFLVKHTASNVGHRNHKGDTACDLARLYGRNEVVSLMQANGAGGATNLQ

Variants of: B1
Settings: with cdk6_human CDK6, Q00534
Chain of cdk6_human CDK6, Q00534 (Q00534 whole entry): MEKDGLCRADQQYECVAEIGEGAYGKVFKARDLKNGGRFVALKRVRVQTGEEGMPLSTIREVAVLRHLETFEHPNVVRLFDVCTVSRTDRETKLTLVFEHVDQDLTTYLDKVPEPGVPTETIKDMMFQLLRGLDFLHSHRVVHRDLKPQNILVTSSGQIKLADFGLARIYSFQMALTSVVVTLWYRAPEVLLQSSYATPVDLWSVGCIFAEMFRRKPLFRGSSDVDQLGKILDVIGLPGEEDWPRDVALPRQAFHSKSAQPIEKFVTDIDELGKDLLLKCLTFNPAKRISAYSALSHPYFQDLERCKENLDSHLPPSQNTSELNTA
With F37I the “effect of a mutation on the interaction” value was “disrupting interaction”. For A61D, the “effect of a mutation on the interaction” value was “decreasing interaction”.
